{"source": "the RNAGym collection of RNA variant scans (doi:10.7554/elife.80360)", "parents": {"B1": {"name": "Hammerhead Ribozyme (parent)", "chain": "ACCGGAUGUGCUUUCCGGUCUGAUGAGUCCGUGAGGACGAAACAG"}}, "data": [{"variants_of": "B1", "assay": "self-cleavage, relative activity (ratio to wild type); higher = more cleavage; co-transcriptional", "values": [{"variant": "C29U A42C", "self-cleavage": 0.326}, {"variant": "C29U A42G", "self-cleavage": 0.283}, {"variant": "C29U A42U", "self-cleavage": 0.367}, {"variant": "C29U A44C", "self-cleavage": 0.44}, {"variant": "C29U A44G", "self-cleavage": 1.27}, {"variant": "C29U A44U", "self-cleavage": 0.542}, {"variant": "C29U C30A", "self-cleavage": 0.609}, {"variant": "C29U C30G", "self-cleavage": 0.546}, {"variant": "C29U C30U", "self-cleavage": 0.656}, {"variant": "C29U C38A", "self-cleavage": 0.485}, {"variant": "C29U C38G", "self-cleavage": 0.559}, {"variant": "C29U C38U", "self-cleavage": 1.04}, {"variant": "C29U C43A", "self-cleavage": 0.337}, {"variant": "C29U C43G", "self-cleavage": 0.319}, {"variant": "C29U C43U", "self-cleavage": 0.47}, {"variant": "C29U G31A", "self-cleavage": 0.994}, {"variant": "C29U G31C", "self-cleavage": 0.673}, {"variant": "C29U G31U", "self-cleavage": 0.783}, {"variant": "C29U G33A", "self-cleavage": 0.959}, {"variant": "C29U G33C", "self-cleavage": 1.09}, {"variant": "C29U G33U", "self-cleavage": 0.92}, {"variant": "C29U G35A", "self-cleavage": 0.636}, {"variant": "C29U G35C", "self-cleavage": 0.778}, {"variant": "C29U G35U", "self-cleavage": 0.744}, {"variant": "C29U G36A", "self-cleavage": 0.722}, {"variant": "C29U G36C", "self-cleavage": 0.603}, {"variant": "C29U G36U", "self-cleavage": 0.483}, {"variant": "C29U G39A", "self-cleavage": 0.406}, {"variant": "C29U G39C", "self-cleavage": 0.326}, {"variant": "C29U G39U", "self-cleavage": 0.369}, {"variant": "C29U G45A", "self-cleavage": 0.454}, {"variant": "C29U G45C", "self-cleavage": 0.443}, {"variant": "C29U G45U", "self-cleavage": 0.596}, {"variant": "C29U U32A", "self-cleavage": 0.902}, {"variant": "C29U U32C", "self-cleavage": 0.843}, {"variant": "C29U U32G", "self-cleavage": 1.06}, {"variant": "C30A", "self-cleavage": 0.919}, {"variant": "C30A A34C", "self-cleavage": 0.798}, {"variant": "C30A A34G", "self-cleavage": 0.628}, {"variant": "C30A A34U", "self-cleavage": 0.66}, {"variant": "C30A A37C", "self-cleavage": 0.428}, {"variant": "C30A A37G", "self-cleavage": 0.586}, {"variant": "C30A A37U", "self-cleavage": 0.42}, {"variant": "C30A A40C", "self-cleavage": 0.466}, {"variant": "C30A A40G", "self-cleavage": 0.414}, {"variant": "C30A A40U", "self-cleavage": 0.347}, {"variant": "C30A A41C", "self-cleavage": 0.423}, {"variant": "C30A A41G", "self-cleavage": 0.347}, {"variant": "C30A A41U", "self-cleavage": 0.377}, {"variant": "C30A A42C", "self-cleavage": 0.322}, {"variant": "C30A A42G", "self-cleavage": 0.246}, {"variant": "C30A A42U", "self-cleavage": 0.312}, {"variant": "C30A A44C", "self-cleavage": 0.317}, {"variant": "C30A A44G", "self-cleavage": 0.819}, {"variant": "C30A A44U", "self-cleavage": 0.441}, {"variant": "C30A C38A", "self-cleavage": 0.386}, {"variant": "C30A C38G", "self-cleavage": 0.48}, {"variant": "C30A C38U", "self-cleavage": 0.743}, {"variant": "C30A C43A", "self-cleavage": 0.293}, {"variant": "C30A C43G", "self-cleavage": 0.386}, {"variant": "C30A C43U", "self-cleavage": 0.431}, {"variant": "C30A G31A", "self-cleavage": 1.12}, {"variant": "C30A G31C", "self-cleavage": 0.872}, {"variant": "C30A G31U", "self-cleavage": 1.07}, {"variant": "C30A G33A", "self-cleavage": 1.21}, {"variant": "C30A G33C", "self-cleavage": 0.755}, {"variant": "C30A G33U", "self-cleavage": 0.995}, {"variant": "C30A G35A", "self-cleavage": 0.765}, {"variant": "C30A G35C", "self-cleavage": 0.793}, {"variant": "C30A G35U", "self-cleavage": 1.17}, {"variant": "C30A G36A", "self-cleavage": 0.573}, {"variant": "C30A G36C", "self-cleavage": 0.525}, {"variant": "C30A G36U", "self-cleavage": 0.639}, {"variant": "C30A G39A", "self-cleavage": 0.348}, {"variant": "C30A G39C", "self-cleavage": 0.303}, {"variant": "C30A G39U", "self-cleavage": 0.418}, {"variant": "C30A G45A", "self-cleavage": 0.575}, {"variant": "C30A G45C", "self-cleavage": 0.454}, {"variant": "C30A G45U", "self-cleavage": 0.545}, {"variant": "C30A U32A", "self-cleavage": 0.797}, {"variant": "C30A U32C", "self-cleavage": 0.879}, {"variant": "C30A U32G", "self-cleavage": 0.892}, {"variant": "C30G", "self-cleavage": 0.867}, {"variant": "C30G A34C", "self-cleavage": 0.802}, {"variant": "C30G A34G", "self-cleavage": 0.409}, {"variant": "C30G A34U", "self-cleavage": 0.888}, {"variant": "C30G A37C", "self-cleavage": 0.337}, {"variant": "C30G A37G", "self-cleavage": 0.571}, {"variant": "C30G A37U", "self-cleavage": 0.358}, {"variant": "C30G A40C", "self-cleavage": 0.425}, {"variant": "C30G A40G", "self-cleavage": 0.305}, {"variant": "C30G A40U", "self-cleavage": 0.283}, {"variant": "C30G A41C", "self-cleavage": 0.368}, {"variant": "C30G A41G", "self-cleavage": 0.349}, {"variant": "C30G A41U", "self-cleavage": 0.266}, {"variant": "C30G A42C", "self-cleavage": 0.306}, {"variant": "C30G A42G", "self-cleavage": 0.316}, {"variant": "C30G A42U", "self-cleavage": 0.227}, {"variant": "C30G A44C", "self-cleavage": 0.363}, {"variant": "C30G A44G", "self-cleavage": 0.769}, {"variant": "C30G A44U", "self-cleavage": 0.367}, {"variant": "C30G C38A", "self-cleavage": 0.402}, {"variant": "C30G C38G", "self-cleavage": 0.493}, {"variant": "C30G C38U", "self-cleavage": 0.797}, {"variant": "C30G C43A", "self-cleavage": 0.287}, {"variant": "C30G C43G", "self-cleavage": 0.267}, {"variant": "C30G C43U", "self-cleavage": 0.276}, {"variant": "C30G G31A", "self-cleavage": 0.806}, {"variant": "C30G G31C", "self-cleavage": 0.926}, {"variant": "C30G G31U", "self-cleavage": 0.88}, {"variant": "C30G G33A", "self-cleavage": 0.715}, {"variant": "C30G G33C", "self-cleavage": 0.807}, {"variant": "C30G G33U", "self-cleavage": 1.02}, {"variant": "C30G G35A", "self-cleavage": 1.06}, {"variant": "C30G G35C", "self-cleavage": 1.03}, {"variant": "C30G G35U", "self-cleavage": 1.04}, {"variant": "C30G G36A", "self-cleavage": 0.553}, {"variant": "C30G G36C", "self-cleavage": 0.441}, {"variant": "C30G G36U", "self-cleavage": 0.697}, {"variant": "C30G G39A", "self-cleavage": 0.26}, {"variant": "C30G G39C", "self-cleavage": 0.334}, {"variant": "C30G G39U", "self-cleavage": 0.337}, {"variant": "C30G G45A", "self-cleavage": 0.403}, {"variant": "C30G G45C", "self-cleavage": 0.608}, {"variant": "C30G G45U", "self-cleavage": 0.377}, {"variant": "C30G U32A", "self-cleavage": 0.632}, {"variant": "C30G U32C", "self-cleavage": 0.581}, {"variant": "C30G U32G", "self-cleavage": 0.651}, {"variant": "C30U", "self-cleavage": 1.02}, {"variant": "C30U A34C", "self-cleavage": 1.03}, {"variant": "C30U A34G", "self-cleavage": 0.961}, {"variant": "C30U A34U", "self-cleavage": 0.93}, {"variant": "C30U A37C", "self-cleavage": 1.08}, {"variant": "C30U A37G", "self-cleavage": 1.21}, {"variant": "C30U A37U", "self-cleavage": 0.643}, {"variant": "C30U A40C", "self-cleavage": 0.514}, {"variant": "C30U A40G", "self-cleavage": 0.333}, {"variant": "C30U A40U", "self-cleavage": 0.345}, {"variant": "C30U A41C", "self-cleavage": 0.374}, {"variant": "C30U A41G", "self-cleavage": 0.35}, {"variant": "C30U A41U", "self-cleavage": 0.419}, {"variant": "C30U A42C", "self-cleavage": 0.314}, {"variant": "C30U A42G", "self-cleavage": 0.24}, {"variant": "C30U A42U", "self-cleavage": 0.328}, {"variant": "C30U A44C", "self-cleavage": 0.632}, {"variant": "C30U A44G", "self-cleavage": 1.36}, {"variant": "C30U A44U", "self-cleavage": 0.625}, {"variant": "C30U C38A", "self-cleavage": 0.695}, {"variant": "C30U C38G", "self-cleavage": 0.598}, {"variant": "C30U C38U", "self-cleavage": 1.1}, {"variant": "C30U C43A", "self-cleavage": 0.34}, {"variant": "C30U C43G", "self-cleavage": 0.343}, {"variant": "C30U C43U", "self-cleavage": 0.546}, {"variant": "C30U G31A", "self-cleavage": 1.02}, {"variant": "C30U G31C", "self-cleavage": 1.11}, {"variant": "C30U G31U", "self-cleavage": 1.01}, {"variant": "C30U G33A", "self-cleavage": 1.02}, {"variant": "C30U G33C", "self-cleavage": 0.714}, {"variant": "C30U G33U", "self-cleavage": 1.18}, {"variant": "C30U G35A", "self-cleavage": 1.02}, {"variant": "C30U G35C", "self-cleavage": 0.758}, {"variant": "C30U G35U", "self-cleavage": 1.18}, {"variant": "C30U G36A", "self-cleavage": 0.547}, {"variant": "C30U G36C", "self-cleavage": 0.667}, {"variant": "C30U G36U", "self-cleavage": 0.498}, {"variant": "C30U G39A", "self-cleavage": 0.278}, {"variant": "C30U G39C", "self-cleavage": 0.319}]}]}
